# Measurements reported in patent US20230340114A1 (IMMUNE ONC THERAPEUTICS, published 2023).
# How the values were obtained:
# [1] = molecular target: recombinant CD3e-CD3d heterodimer protein (Acro Biosystems) (UniProt P07766 23-126; P04234 22-105); experiment: SPR (Biacore 8K), CD3e-CD3d immobilized on CM5 chip, bispecific as analyte, 1:1 model
# Description: (§1) Binding affinities of first-generation bispecific antibodies to recombinant CD3e-CD3d heterodimer protein (Acro Biosystems) or LILRB4 recombinant protein (Sino Biological) were measured by surface plasmon resonance using a Biacore 8K instrument. Briefly, CD3e-CD3d or LILRB4 protein was immobilized on a CM5 chip with EDC and NHS according to standard protocols. […] The chip was regenerated using 10 mM glycine pH 1.5 as the regeneration buffer. The sensorgrams for reference channel Fc1 and buffer channel were subtracted from the test sensorgrams and the experimental data was fitted by 1:1 binding model.
# [2] = molecular target: T1, human LILRB4 expressed on cells (human, UniProt Q8NHJ6 22-448); experiment: FACS (Geo MFI) on normal human monocytes; panel assigned to monocytes by the order in legend paragraph 86
# T1 construct: whole, on cells; also called ILT3; CD85k
# [3] = molecular target: T1, human LILRB4 expressed on cells; experiment: cell-based or functional assay
# [4] = molecular target: T2, recombinant human LILRB4 protein (Sino Biological, cat #16742-H08H) (human, UniProt Q8NHJ6 22-259); experiment: SPR (Biacore 8K), LILRB4 immobilized on CM5 chip, bispecific as analyte, 1:1 model
# T2 construct: extracellular domain; also called LILRB4 recombinant protein (Sino Biological); Human LILRB4 ECD-his; not shown: his tag
# Description: as §1
# Chain of recombinant CD3e-CD3d heterodimer protein (Acro Biosystems) (P07766 23-126 limits assumed, chain 1 of 2): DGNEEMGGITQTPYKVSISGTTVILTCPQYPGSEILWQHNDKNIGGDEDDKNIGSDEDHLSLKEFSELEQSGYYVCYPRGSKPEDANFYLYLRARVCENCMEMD
# Chain of recombinant CD3e-CD3d heterodimer protein (Acro Biosystems) (P04234 22-105 limits assumed, chain 2 of 2): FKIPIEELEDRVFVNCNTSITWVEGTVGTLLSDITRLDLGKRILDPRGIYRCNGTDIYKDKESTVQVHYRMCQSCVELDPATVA
Binder,Kd [1] [pM],EC50 (read off the curve) [2] [pM],"Monocyte (max %), Donor 1 [3] [%]","Monocyte (max %), Donor 2 [3] [%]","Monocyte (max %), Donor 3 [3] [%]","Monocyte killing EC50, Donor 2 [3] [pM]","T-cell cytotoxicity, THP-1 (max %) [3] [%]","T-cell cytotoxicity, THP-1 EC50 [3] [pM]",Kd [4] [pM],"Monocyte killing EC50, Donor 3 [3] [pM]"
"4-3ab (bispecific antibody, human IgG1, kappa, L234A L235A, LILRB4 arm from H7K3m5, CD3 arm from WO2019057099; human IgG1 constant domains with knob-in-hole and effector-reducing mutations; also called first-generation LILRB4/CD3 bispecific antibody No. 1) heavy 1: not shown heavy 2: EVQLVESGGGLVQPGGSLRLSCAASGFSLSSSYWISWVRQAPGKGLEWIGSIDSGSVGITYYATWVKGRFTISRDNSKNTLYLQMNSLRAEDTAVYYCARHGDNWALDLWGQGTLVTVSSASTKGPSVFPLAPSSKSTSGGTAALGCLVKDYFPEPVTVSWNSGALTSGVHTFPAVLQSSGLYSLSSVVTVPSSSLGTQTYICNVNHKPSNTKVDKRVEPKSCDKTHTCPPCPAPEAAGGPSVFLFPPKPKDTLMISRTPEVTCVVVDVSHEDPEVKFNWYVDGVEVHNAKTKPREEQYNSTYRVVSVLTVLHQDWLNGKEYKCKVSNKALPAPIEKTISKAKGQPREPQVCTLPPSREEMTKNQVSLSCAVKGFYPSDIAVEWESNGQPENNYKTTPPVLDSDGSFFLVSKLTVDKSRWQQGNVFSCSVMHEALHNHYTQKSLSLSPG light 1: DIVMTQSPDSLAVSLGERATINCKSSQSLLNSRTRKNYLAWYQQKPGQPPKLLIYWASTRQSGVPDRFSGSGSGTDFTLTISSLQAEDVAVYYCTQSHTLRTFGGGTKVEIKPDIQNPDPAVYQLRDSKSSDKSVCLFTDFDSQTQVSQSKDSDVYITDKCVLDMRSMDFKSNSAVAWSQKSDFACANAFQNSIIPEDTFFPSPESS light 2: DIQMTQSPSTLSASVGDRVTITCRASQSISSWLAWYQQKPGKAPKLLIYKASTLASGVPSRFSGSGSGTEFTLTISSLQPDDFATYYCQHGYIRGDLDNVFGGGTKVEIKRTVAAPSVFIFPPSDEQLKSGTASVVCLLNNFYPREAKVQWKVDNALQSGNSQESVTEQDSKDSTYSLSSTLTLSKADYEKHKVYACEVTHQGLSSPVTKSFNRGEC",49600,~800,43,41,13,9.4,98,0.36,190,–
"4ab-3 (bispecific antibody, human IgG1, kappa, L234A L235A, also called first-generation LILRB4/CD3 bispecific antibody No. 2) heavy 1: not shown heavy 2: EVQLVESGGGLVQPGGSLRLSCAASGFSLSSSYWISWVRQAPGKGLEWIGSIDSGSVGITYYATWVKGRFTISRDNSKNTLYLQMNSLRAEDTAVYYCARHGDNWALDLWGQGTLVTVLEDLKNVFPPEVAVFEPSEAEISHTQKATLVCLATGFYPDHVELSWWVNGKEVHSGVCTDPQPLKEQPALQDSRYALSSRLRVSATFWQNPRNHFRCQVQFYGLSENDEWTQDRAKPVTQIVSAEAWGRASDKTHTCPPCPAPEAAGGPSVFLFPPKPKDTLMISRTPEVTCVVVDVSHEDPEVKFNWYVDGVEVHNAKTKPREEQYNSTYRVVSVLTVLHQDWLNGKEYKCKVSNKALPAPIEKTISKAKGQPREPQVCTLPPSREEMTKNQVSLSCAVKGFYPSDIAVEWESNGQPENNYKTTPPVLDSDGSFFLVSKLTVDKSRWQQGNVFSCSVMHEALHNHYTQKSLSLSPG light 1: not shown light 2: DIQMTQSPSTLSASVGDRVTITCRASQSISSWLAWYQQKPGKAPKLLIYKASTLASGVPSRFSGSGSGTEFTLTISSLQPDDFATYYCQHGYIRGDLDNVFGGGTKVEIKPDIQNPDPAVYQLRDSKSSDKSVCLFTDFDSQTQVSQSKDSDVYITDKCVLDMRSMDFKSNSAVAWSQKSDFACANAFQNSIIPEDTFFPSPESS",33400,~400,43,34,32.5,29,98.6,0.084,270,9.25
